# Experimental data taken from the DeepSol protein solubility set.
# Test: soluble on expression in E. coli; label from the status in PepcDB or PDB records
row,Sequence,soluble on expression in E. coli
1,METAKEMTRESLPIKCLEAVILGIYLTNGQPSIERFPISFKTYFSGNYFHHVVLGIYCNGRYGSLGMSRRAELMDKPLTFRTLSDLIFDFEDSYKKYLHTVKKVKIGLYVPHEPHSFQPIEWKQLVLNVSKMLRADIRKELEKYARDMRMKGLCSH,soluble
2,MSDWSPMHEAAIHGHQLSLRNLISQGWAVNIITADHVSPLHEACLGGHLSCVKILLKHGAQVNGVTADWHTPLFNACVSGSWDCVNLLLQHGASVQPESDLASPIHEAARRGHVECVNSLIAYGGNIDHKISHLGTPLYLACENQQRACVKKLLESGADVNQGKGQDSPLHAVARTASEELACLLMDFGADTQAKNAEGKRPVELVPPESPLAQLFLEREGPPSLMQLCRLRIRKCFGIQQHHKITKLVLPEDLKQFLLHL,soluble
3,MQDIPQETLSETTKAEQSAKVDLWEFDLTAIGGERFFFCNEPNEKGEPLTWQGRQYEPYPIQVQDFEMNGKGASPRPNLVVANLFGLVTGMAEDLQSLVGASVVRHQVYSKFLDAVNFSNGNPDADPEQEAVARYNVEQLSELDSSTATIILASPAETDGSVVPGRTMLADSCPWDYRDENCGYDGPPVADEFDKPTSDPKKDKCSHCMKGCEMRNNLVNAGFFASINKLS,not soluble
4,MSQNATVNVDIKLGVNKFHVDEGHPHIILTENPDINEFRKLMKACPAGLYKQDDVGNIHFDPAGCLECGTCRVLCGNTILEQWQYPAGTFGIDFRYG,not soluble
5,MGSDKIHHHHHHMLTQLQCPSCGGRLLSNKEGRNSILCQSCKKEFSAREGVLCFVPDNVFTQLDNIDYDKHYSISDESSQQAFASLKGVLGNRLKNNYGVLLEIGAGTGGFTKGLLTNIKVNRAIVTDISPKMLSICRKRVLGESHLADDVIFATYSTGENILPSNSIDCIIGSFVLHHILDYKSFIRKSYDLLKKDGAFIFSEPCYKFHDALVLTMSEILETLIGEGDNSEVDLTRLSNWIHELHFNLKYVGDQDVLSGREDKHLFIRSEVENSAFDVGFELVEILPYGDPDAINQCLLSYLPQLDLSHIFLQKVSNLFDLYHIKYFGLIEREDAVPAYVFFFKKKMNLFSRLFKNV,not soluble
6,MGSDKIHHHHHHENLYFQGDSFKTKSGKELTITFIKHGSLMLTYDNHSIQVDPVSEYADYTTFPKADIILITHEHGDHLDPKAIQAVEKSDTEIIANENSQKKLGKGKVLKNGDTDTSISYMKIEAVPAYNTTPGRDKYHPRHRDNGYILTFDGLRVYIAGDTEDIPEMKDLKDIDIAFLPVNQPYTMTVSQAAKAARMFSPKILYPYHYGDTKIGELKDALKDSGIDVRIRELQ,soluble
7,MKKALPNTKVTVKLRRSNYKEEWYLIIESYPVYKRGSKRASRVVESINRTISTPIWDKSSIARILPDGTFNYKPKRDLNGIIQCRSTIDQEACIYADNVRKLRQHEYDSAILYTDKENEIAAQNERSEQDFIKYFNRIISTRHPNSSDSIIVNWRRVGELLKMYSQGQPIPFKAISVKLLEDIKMFLLRAPMGGNKKGTISQNTASTYFSILKAGLKQAFIDEYLTVDISAKVKGITNIEKPRVALTMNEVQMLVDTPCKDDVLKRAFLFSILTGLRHSDIQTLKWKQIQQTSKGTWQAVVIQQKTKRPDYKPVIQQALQLCGIRPDDDEALVFEGLTDASWISRPLKVWIEASGIKKHITF,not soluble
8,MDCQIGSRRCATWDEIEDAPQTKRLREDKVQENVPQQSVQPAPPPPAAQQAPAPAEQPKFYISAPIQGFTVNNQGGCRYLFF,not soluble
9,MGSDKIHHHHHHMSEQELSQLSGGMDDAAPCPWLKVEVHPAGDRQVVVAYGDIDVDTEAILQRALREALDHSVSGVNLDLGAVGFCDCAGLNVLLRMRRHALAHGKTLAVQATGPATGKLLTITGTLSLFDVTAGPGTRAKGRNPLPPEPHDPSRVDHIDGTGRGRDGTDLETDGTIDGTVVDLRIEVGQLRRAMQTRPVIDLARGVLMASFGLSAEDAWTVLVTVSQHTNTKLHQIAEDLVNTVQGAPLPEPLQRQLAEAVMPFSRVRNAGA,not soluble
10,MFKHIISCLLLISATSALAAEKPTLTVYTYDSFAADWGPGPAIKQAFEAECDCQLKFVALEDGVSLLNRLRMEGKNSQADVILGLDNNLVQAAEQTGLFTPSQVDTRNLTLPEPWQNKTFVPYDYGYFAFVYNKEKLKNPPKSLHELISSKEPWKVIYQDPRTSTPGLGLMLWMQKVYGDQAPQAWQQLAQKTVTVTKGWSEAYGLFLKGEADLVLSYTTSPAYHLIAEKNNNYAAADFSEGHYLQVEVAGQLAASKQPELAQRFMQFIVTPAFQNHIPTGNWMYPVIKMDLPAGFETLAVPQTALQFDAKDVADNRSKWIQAWQSAVSR,not soluble
11,MNWYEKLSEYFPIEEMKSKAHMEALLKERSDIYHKDEGKHHILMFAEFDSFIFVDYLYVSKDARGQGLGGKLIAKLKKKNKPILLEVEPVDEDDTDTEKRLRFYQREHFKHAQSIGYRRRSLATNEVNKIEILYWSPKTESEEEILEAMKQTYENIHTYKDEKWYGESYEKTDEVLEIIDEEKQKNIFDQLS,not soluble
12,MKFDKPAGENPIDQLKVVGRPHDRIDGPLKTTGTARYAYEWHEEAPNAAYGYIVGSAIAKGRLTALDTDAAQKAPGVLAVITASNAGALGKGDKNTARLLGGPTIEHYHQAIALVVAETFEQARAAASLVQAHYRRNKGAYSLADEKQAVNQPPEDTPDKNVGDFDGAFTSAAVKIDATYTTPDQSHMAMEPHASMAVWDGNKLTLWTSNQMIDWCRTDLAKTLKVPVENVRIISPYIGGGFGGKLFLRSDALLAALAARAVKRPVKVMLPRPSIPNNTTHRPATLQHLRIGADQSGKITAISHESWSGNLPGGTPETAVQQSELLYAGANRHTGLRLATLDLPEGNAMRAPGEAPGLMALEIAIDELAEKAGIDPVEFRILNDTQVDPADPTRCFSRRQLIECLRTGADKFGWKQRNATPGQVRDGEWLVGHGVAAGFRNNLLEKSGARVHLEQNGTVTVETDMTDIGTGSYTILAQTAAEMLGVPLEQVAVHLGDSSFPVSAGSGGQWGANTSTSGVYAACMKLREMIASAVGFDPEQSQFADGKITNGTRSATLHEATAGGRLTAEESIEFGTLSKEYQQSTFAGHFVEVGVHSATGEVRVRRMLAVCAAGRILNPKTARSQVIGAMTMGMGAALMEELAVDDRLGYFVNHDMAGYEVPVHADIPKQEVIFLDDTDPISSPMKAKGVGELGLCGVSAAIANAVYNATGIRVRDYPITLDKLLDKLPDVV,not soluble
13,GADNNKWKPLFGKNLENANYNPEVWSETDGVLGAVKDESIWTKDEYENFELDLDFKTDVGTNSGVVVYCTDTKDWIPNSVEIQIADDHCEKWGNGKPYEKCGAIYGHLGAVQDKVVKKPGEWNHMRIKCAGQHIMVILNGKKVTEMDMSKWTSGTKNPDGSDIPSWLPKPFAELPTKGFIGLQGKHGDSLIWFRNIKIRSL,soluble
14,MGSDKIHHHHHHMRPETAIIEIHGQYRIHTEFYGNPAAQQTIILVNGSLSTTASFAQTVKYLQPHYNVVLYDQPYAGQSKPHNENHTPISKECEARILLELIERFRAEVVMSFSWGGVATLLALAQRPGRIRRAVVNSFSPQLNPAMLDYLHRGLDYLAACDRTQIGNLVNETIGRYLPQLFKRYNFRHVSSLDEHEYHQMHFHIREVLRLNADSYTESFAGIEIPMLFMNGELDIYTTPHEARQFGQLIRGAEFHTIRNAGHFIDVEHKAAWQQTQDALLAFLRPQRTQPLNPIYRPQPNGASVPLAALAS,not soluble
15,EPKLDMNKQKISPAEVAKHNKPDDCWVVINGYVYDLTRFLPNHPGGQDVIKFNAGKDVTAIFEPLHAPNVIDKYIAPEKKLGPLQGSMPPELVCPPYAPGETKEDIARKEQLKSLLPPLDNIINLYDFEYLASQTLTKQAWAYYSSGANDEVTHRENHNAYHRIFFKPKILVDVRKVDISTDMLGSHVDVPFYVSATALCKLGNPLEGEKDVARGCGQGVTKVPQMISTLASCSPEEIIEAAPSDKQIQWYQLYVNSDRKITDDLVKNVEKLGVKALFVTVDAPSLGQREKDMKLKFSNTKAGPKAMKKTNVEESQGASRALSKFIDPSLTWKDIEELKKKTKLPIVIKGVQRTEDVIKAAEIGVSGVVLSNHGGRQLDFSRAPIEVLAETMPILEQRNLKDKLEVFVDGGVRRGTDVLKALCLGAKGVGLGRPFLYANSCYGRNGVEKAIEILRDEIEMSMRLLGVTSIAELKPDLLDLSTLKARTVGVPNDVLYNEVYEGPTLTEFEDA,soluble
16,MNGSKENAMKIDLNSDMGEGFGPYRLCDDEAMMKIVSSANIACGFHGGDPDTMARMVRLAKANGVGIGAHPGLPDRAGFGRREIPFQPDELRQQMLYQLGALMAIAGAEGMKVGHFSFHAAMGNMVNRDPVLADLMMNAIATVDPRLVVFVTPESEIERAAKRAGLKTLALFLADRAYDAEGRLVARGLPGALVKDETSVRARVRRFLTHGQVEAIDGTIIAMPAHSILVHSDTPGSLELARIIRSEIEASGATLAPAAEHAALEHHHHHH,soluble
17,MGSDKIHHHHHHMRGGNIKAIVYLPLDPEKAKQNNLPVKLPVLAEDLPKVLEEDRIPLDVILRGLEAQYEITKDEYYRSYYVFFLYEKFKQLLREGKLDEAEKILEKAKEVQYDYRYHFYRGLLLKHRGELGEAEIEMRLAISMNDRFAPAYFELAGILKEKNEIEDSLLFYEKAYEVNKEFLLPLLKKGDLLLEEGRLEEAIEEYRRILEKDSNFVEVYERLGVIYNQLQRFKEAEKFFKKALEIERKDHVEYNLSYTLIKLGKLFEALEILKRLYEKNPDDPMVANEYGLLLKTLGLYEEALEVFEDAYRRHKEEEILKYNYGTILLHFEKEKAVSILSEISGELKDRAEFMISLAEKDVVIPSYEEFEWLKDYFFEGTIDVVALSEEIDSEDEDAKRRIERLREGEFPFYDTTLDSSEMLEVILGIMFESPDIFKMEENAVKFVSAFYGSSVMIASTIVLTRTFQYFLAEEEPTMEELLRELVAETQDVNWKFSLRLARFRHADRFDFNRLSDLVIAFLQSIEQGTPVSDDERLKYLLEKLTFQKEG,not soluble
18,MGTFNNSIQEKIEKLQKTVDTLLHMGENMDCICVDDLSLLNKEIHEQINDLYPYHGKTAEQEAALCLSLLMGYSVSMYANSEDEAKKKTVLRRSQMILKNQLPSPLKIQLHTIYDKLLS,not soluble
19,MTEPFIVRRETQIAAPRATVFAYLTDPEKILSWMGSDATTEPHPGGLYLLKGIGPRGAAARGAFREVVPVHRLAYTFGWEGGQEVPPGSSLIEIDLIERDGGTLLRMTHSGLPTEEQAAAHAKGWAHYLERLTTAAAGNDPGPDNGVSTKSLEHHHHHH,soluble
20,MSMLKKTKEFFGLAPYEAEHEDAYYADEPRYEGTAAYAPEYRERDYGYAPEAPAPVAPSPAPRSYQSTIVPVELHSFEDAQVIGGAFRDGDAVVFDMSLLSREEARRIVDFAAGLCFALRGKMQKIDSVTFAVVPELSNISTSELERAARIRAAALEHHHHHH,soluble
21,MISPKKEITSSKYQKIAISVAQRIANGEYEVGEKLKSRTTIASTFNVSPETARKGLNILADLKILTLKHGSGAIVLSKERAIEFINQYESTHSIAVLKEKIRETINDQGKAMEKMAVLVNDFLMQSQSVSKQYPLAPYEIICNQDSEHFGKSIGVLNIWHQTGATIVAIEHAGQFIVSPGPYSVIEKGDHIYFVGDESVISRMKTFFNLRKGL,not soluble
22,MALASAADFFAQQHPSYGRHIGQLYERAVKNDLSFTHTFVNPQVNRSLGYMEEDGEPIAAKVVRETADGLIIKGARLLATQGGMTDELLVLPAGGALLGDEYMYAFSIPSNAPGLKFVCRPSLAAGALVFDAPLSSRFDEIDAMVVFDEVLVPWDRVFFYKNAWFAKEMEEETHLAIMLLHQVLARRIVKTEFFLGTVELLSEAIQIGGYQHVQEKIGEIAAALEALRGMLLASELHAKPDRRGTMVPDPAPLYAAAFLYPRLYPRFADIIQLLGASGLVCLPTEADFSSPLRPDLDRYLQAATLPAEQRVRLFRFAWDMAMSAFGTRQTLYERFFFGDPARFATTFYHRYDREACAEIVRQFLDSEQR,not soluble
